Results from PMC4778049, “A Helitron transposon reconstructed from bats reveals a novel mechanism of genome shuffling in eukaryotes” (Nature Communications, 2016).
Positions count from the first letter of the chain named.

B1: Helraiser transposase (Myotis lucifugus) (protein)
chain: MSKEQLLIQRSSAAERCRRYRQKMSAEQRASDLERRRRLQQNVSEEQLLEKRRSEAEKQRRHRQKMSKDQRAFEVERRRWRRQNMSREQSSTSTTNTGRNCLLSKNGVHEDAILEHSCGGMTVRCEFCLSLNFSDEKPSDGKFTRCCSKGKVCPNDIHFPDYPAYLKRLMTNEDSDSKNFMENIRSINSSFAFASMGANIASPSGYGPYCFRIHGQVYHRTGTLHPSDGVSRKFAQLYILDTAEATSKRLAMPENQGCSERLMININNLMHEINELTKSYKMLHEVEKEAQSEAAAKGIAPTEVTMAIKYDRNSDPGRYNSPRVTEVAVIFRNEDGEPPFERDLLIHCKPDPNNPNATKMKQISILFPTLDAMTYPILFPHGEKGWGTDIALRLRDNSVIDNNTRQNVRTRVTQMQYYGFHLSVRDTFNPILNAGKLTQQFIVDSYSKMEANRINFIKANQSKLRVEKYSGLMDYLKSRSENDNVPIGKMIILPSSFEGSPRNMQQRYQDAMAIVTKYGKPDLFITMTCNPKWADITNNLQRWQKVENRPDLVARVFNIKLNALLNDICKFHLFGKVIAKIHVIEFQKRGLPHAHILLILDSESKLRSEDDIDRIVKAEIPDEDQCPRLFQIVKSNMVHGPCGIQNPNSPCMENGKCSKGYPKEFQNATIGNIDGYPKYKRRSGSTMSIGNKVVDNTWIVPYNPYLCLKYNCHINVEVCASIKSVKYLFKYIYKGHDCANIQISEKNIINHDEVQDFIDSRYVSAPEAVWRLFAMRMHDQSHAITRLAIHLPNDQNLYFHTDDFAEVLDRAKRHNSTLMAWFLLNREDSDARNYYYWEIPQHYVFNNSLWTKRRKGGNKVLGRLFTVSFREPERYYLRLLLLHVKGAISFEDLRTVGGVTYDTFHEAAKHRGLLLDDTIWKDTIDDAIILNMPKQLRQLFAYICVFGCPSAADKLWDENKSHFIEDFCWKLHRREGACVNCEMHALNEIQEVFTLHGMKCSHFKLPDYPLLMNANTCDQLYEQQQAEVLINSLNDEQLAAFQTITSAIEDQTVHPKCFFLDGPGGSGKTYLYKVLTHYIRGRGGTVLPTASTGIAANLLLGGRTFHSQYKLPIPLNETSISRLDIKSEVAKTIKKAQLLIIDECTMASSHAINAIDRLLREIMNLNVAFGGKVLLLGGDFRQCLSIVPHAMRSAIVQTSLKYCNVWGCFRKLSLKTNMRSEDSAYSEWLVKLGDGKLDSSFHLGMDIIEIPHEMICNGSIIEATFGNSISIDNIKNISKRAILCPKNEHVQKLNEEILDILDGDFHTYLSDDSIDSTDDAEKENFPIEFLNSITPSGMPCHKLKLKVGAIIMLLRNLNSKWGLCNGTRFIIKRLRPNIIEAEVLTGSAEGEVVLIPRIDLSPSDTGLPFKLIRRQFPVMPAFAMTINKSQGQTLDRVGIFLPEPVFAHGQLYVAFSRVRRACDVKVKVVNTSSQGKLVKHSESVFTLNVVYREILE
notes: full-length synthesized consensus transposase, 1,496 aa (N-terminal domain, Rep HUH nuclease, SF1 helicase); baculovirus expression, purified

Experiments:
Helraiser transposase = biological target: T1, Helraiser transposase (Myotis lucifugus, UniProt Z9MI32ZQP9, K1068Q); assay: colorimetric ATPase assay (pyrophosphate release as printed); type: biochemical; details: Walker A mutant; ATP hydrolysis abolished
T1 construct: full-length synthesized consensus transposase, 1,496 aa (N-terminal domain, Rep HUH nuclease, SF1 helicase); baculovirus expression, purified
T1 sequence (Z9MI32ZQP9 1-1496 K1068Q): B1 chain with K1068Q

[1] = substrate: Nc1ncnc2c1ncn2[C@@H]1O[C@H](COP(=O)(O)OP(=O)(O)OP(=O)(O)O)[C@@H](O)[C@H]1O; assay: as above; type: biochemical, Myotis lucifugus; details: DNA, metal, pH and temperature of the Km measurement not told in main text; helicase domain (Walker A) site

Molecule | colorimetric ATPase assay (pyrophosphate release as printed) (Helraiser transposase) | Km [1] [µM] | kcat [1] [s⁻¹]
Nc1ncnc2c1ncn2[C@@H]1O[C@H](COP(=O)(O)OP(=O)(O)OP(=O)(O)O)[C@@H](O)[C@H]1O [ATP] | Mutation of the Walker A motif K1068 abolished ATP hydrolysis |  | 
B1 |  | 46 ± 3.3 | 6.8 ± 0.11
